According to patent publication US12290533B2, “Extracellular vesicles and methods of using” (NUtech Ventures, priority 2018, dated 2025):

System: human umbilical vein endothelial cells (HUVEC)
Experiment: Uptake of fluorophore-labeled cow's milk exosomes into HUVECs
Type: cell-based
Details: exosomal surface proteins removed by proteinase K

B1: proteinase K: non-specific protease used to remove surface proteins of exosomes or cells (protein, UniProt P06873 106-384, looked up)
Proteinase K: AAQTNAPWGLARISSTSPGTSTYYYDESAGQGSCVYVIDTGIEASHPEFEGRAQMVKTYYYSSRDGNGHGTHCAGTVGSRTYGVAKKTQLFGVKVLDDNGSGQYSTIIAGMDFVASDKNNRNCPKGVVASLSLGGGYSSSVNSAAARLQSSGVMVAVAAGNNNADARNYSPASEPSVCTVGASDRYDRRSSFSNYGSVLDIFGPGTSILSTWIGGSTRSISGTSMATPHVAGLAAYLMTLGKTTAASACRYIADTANKGDLSNIPFGTVNLLAYNNYQA
exosome uptake: ~50 % of controls
